doi:10.1101/768341

Molecular target: GST-TRAF6 (mouse) (UniProt P70196)
Assay: SPR

UniProt P70196, sequence (P70196 whole entry): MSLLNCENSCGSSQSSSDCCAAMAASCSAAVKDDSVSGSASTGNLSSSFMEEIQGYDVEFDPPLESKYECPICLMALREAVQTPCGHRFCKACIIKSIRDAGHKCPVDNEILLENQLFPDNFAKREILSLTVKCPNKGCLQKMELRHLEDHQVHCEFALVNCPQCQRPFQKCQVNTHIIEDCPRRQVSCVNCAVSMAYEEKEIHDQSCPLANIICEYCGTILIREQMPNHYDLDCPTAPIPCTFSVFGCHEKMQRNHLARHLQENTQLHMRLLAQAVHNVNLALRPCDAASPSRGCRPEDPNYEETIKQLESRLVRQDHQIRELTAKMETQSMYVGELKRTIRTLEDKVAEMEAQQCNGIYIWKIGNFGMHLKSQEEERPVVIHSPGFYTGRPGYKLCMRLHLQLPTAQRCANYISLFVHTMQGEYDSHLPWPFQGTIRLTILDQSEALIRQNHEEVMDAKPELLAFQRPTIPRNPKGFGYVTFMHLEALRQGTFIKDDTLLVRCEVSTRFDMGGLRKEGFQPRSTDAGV

- Kd: 88 µM
- stoichiometry N: 1
Substance: neuroplastin intracellular peptide containing the TRAF6 binding motif
